Where a chain is given by its changes, count along the chain named.
Columns and labels:
[1] = target: T1, GST-LMP1_181-386 / His-TRAF6_310-522 (Homo sapiens, UniProt Q9Y4K3); test: AlphaScreen PPI inhibition, LMP1-TRAF6; type: binding
T1 construct: recombinant GST-LMP1_181-386 and His-TRAF6_310-522; made in house; host or cells: E. coli (BL21 Codon Plus RIPL for the His-TRAF protein; DH5α or BL21 Codon Plus RIPL for the GST protein)
Procedure: (§1) AlphaScreen experiments were performed in 96- or 384-well plates (Perkin Elmer, OptiPlate). In both assay formats, His-TRAF and GST-LMP1, GST-CD40, or GST-RANK proteins were incubated together in 40 µL of PBS (protein concentrations were calculated to the final reaction volume of 60 µL) supplemented with 0.5% BSA (Sigma, #A7030) and 0.1% Tween-20 (AppliChem, #A4974), for 1 h at room temperature (RT). If not indicated otherwise, standard protein concentrations were 300 nM for His-TRAF proteins and 100 nM for GST-LMP1 proteins. Ni-NTA-acceptor (Perkin Elmer, #6760619 C) and GST-acceptor (Perkin Elmer, # 6765300) beads were added each to a final concentration of 1–4 µg per mL in a final reaction volume of 60 µL and incubated for 1 h at RT in the dark. AlphaScreen PPI signals were measured in a CLARIOstar reader (BMG Labtech GmbH).
(§2) All statistical analyses were performed with Prism v10.1.0 software (GraphPad Software Inc.). Two-way ANOVA was performed on experiments with two factors of variance (Figs. 1e and 3a). […] For KD determination, the data from each experiment were cleaned for the hook effect (signal depletion by oversaturation of the beads) and analyzed using the equation one site-specific binding with hill slope (Figs. 1f–i, and Supplementary Fig. 1f). The IC50 was determined using the log(inhibitor) vs. response – variable slope (four parameters) equation (Fig. 8b and d). […]

[2] = target: T2, GST-CD40 / His-TRAF6_310-522 (Homo sapiens, UniProt Q9Y4K3); test: AlphaScreen PPI inhibition, CD40-TRAF6; type: binding; settings: Figure 8 d; best-fit values; 0,03-30 µM peptide
T2 construct: AlphaScreen PPI experiments with GST-CD40 and His-TRAF6_310-522; made in house; host or cells: E. coli (BL21 Codon Plus RIPL for the His-TRAF protein; DH5α or BL21 Codon Plus RIPL for the GST protein)
Procedure: as §1, §2

[3] = system: TRAF6_346-504; test: NMR spectroscopy (1H,15N HSQC) of TRAF6 with LMP1 peptide; type: binding, human; settings: 90 μM 15N-TRAF6, five-fold excess peptide, PBS pH 7.4, 10% D2O, 298 K
Procedure: For NMR, a His-SUMO-TRAF6 fusion construct was expressed in E. coli Rosetta2 DE3 cells from pET-hSu-TRAF6_346-504. The recombinant protein was uniformly labeled with ^15N by growing expression cultures in ^15N-autoinduction medium. TRAF6 protein was purified from cell lysate via IMAC using a Ni-NTA column. After elution, the protein was transferred to 100 mM Tris-HCl pH 8.0, 300 mM NaCl, 20 mM imidazole, and 5 mM β-mercaptoethanol. SUMO-hydrolase dtUD1 was added (ratio 1:50) and incubated overnight at 4 °C. After cleavage, the protein was subjected to a second Ni-NTA affinity chromatography step and then further purified via size-exclusion chromatography using a Superdex 75 10/300 GL column (Äkta system, GE Healthcare). SEC buffer was PBS ([…], 2.7 mM KCl, 10 mM Na2HPO4, 1.8 mM KH2PO4 pH 7.4, 5 mM β-ME) and was subsequently used in the following NMR experiments. NMR spectra were recorded at 298 K using a Bruker Avance 600 spectrometer with a QCI cryogenic probe and topspin v.3.2 software (Bruker BioSpin). Spectra were processed using NMRDraw v.8.7 of NMRPipe software[86] and analyzed with the CCPN Analysis software v.2.4.1[87]. NMR titrations were performed by recording ^1H,^15N HSQC experiments. For titrations of TRAF6, samples of 90 μM ^15N-labeled TRAF6 in PBS pH 7.4, 10% D2O, and 5 mM β-ME were used. […]

[4] = target: T3, His-TRAF6_(310-522) (human, UniProt Q9Y4K3 310-522); test: AlphaScreen or HTRF; AlphaScreen PPI assay: His-TRAF and GST-LMP1, GST-CD40 or GST-RANK in PBS with 0.5% BSA and 0.1% Tween-20, 1 h at RT; standard 300 nM His-TRAF and 100 nM GST protein if not indicated otherwise; for KD His-TRAF6 at different concentrations, fit one site-specific binding with hill slope; settings: both partners purified
T3 construct: also called His-T6; recombinant TRAF6 wild-type; source: E. coli BL21 Codon Plus RIPL, purified (Ni-NTA)
T3 sequence: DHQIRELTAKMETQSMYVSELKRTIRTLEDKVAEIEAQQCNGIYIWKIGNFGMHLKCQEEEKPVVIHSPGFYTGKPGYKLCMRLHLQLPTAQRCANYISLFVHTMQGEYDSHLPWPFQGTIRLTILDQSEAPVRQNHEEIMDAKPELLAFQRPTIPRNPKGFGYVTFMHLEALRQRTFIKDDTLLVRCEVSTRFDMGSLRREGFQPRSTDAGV

[5] = target: T4, His-TRAF6_(310-522) R392A (human, UniProt Q9Y4K3 310-522, R392A); test: as above; settings: both partners purified
T4 construct: also called TRAF6 R392A; source: E. coli BL21 Codon Plus RIPL, purified (Ni-NTA)
T4 sequence: T3 sequence with R83A

[6] = target: T5, His-TRAF6_(310-522) K469A (human, UniProt Q9Y4K3 310-522, K469A); test: as above; settings: both partners purified
T5 construct: also called TRAF6 K469A; source: E. coli BL21 Codon Plus RIPL, purified (Ni-NTA)
T5 sequence: T3 sequence with K160A

[7] = target: T6, His-TRAF6_(310-522) (human, UniProt Q9Y4K3 310-522); test: competition with GST-CD40(216-277)
T6 chain: T3 sequence

[8] = target: T3, His-TRAF6_(310-522); test: AlphaScreen or HTRF; AlphaScreen PPI assay in competition: GST-LMP1 or GST-CD40 with His-TRAF6 (dose-response of TRAF6 inhibitor or control peptide, 4-parameter fit) or GST-LMP1 with His-TRAF2 (30 µM peptide); settings: both partners purified
[9] = target: T7, TRAF6_(346-504) for NMR (human, UniProt Q9Y4K3 346-504, uniformly labeled with 15N); test: NMR titration; settings: both partners purified
T7 construct: also called 15N-labeled TRAF6; source: E. coli Rosetta2 DE3, purified (Ni-NTA, SUMO cleavage, second Ni-NTA, SEC)
T7 sequence: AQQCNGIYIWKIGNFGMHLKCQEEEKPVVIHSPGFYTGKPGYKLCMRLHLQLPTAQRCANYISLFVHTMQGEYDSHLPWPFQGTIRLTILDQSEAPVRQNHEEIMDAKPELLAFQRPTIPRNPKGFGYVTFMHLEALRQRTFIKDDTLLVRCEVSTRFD

DRQIKIWFQNRRMKWKK [control peptide]
inhibition of LMP1-TRAF6 interaction (in words) [1]: inactive | inhibition of CD40-TRAF6 interaction (in words) [2]: no inhibition

G378PVQLSYYD [LMP1 peptide G378PVQLSYYD, LMP1 peptide used in NMR titration]
NMR signals of TRAF6 upon peptide addition (in words) [3]: the signals corresponding to some of the TRAF6 residues were broadened beyond detection

B1: GST-CD40_(216-277) (domain or fragment)
chain: KKVAKKPTNKAPHPKQEPQEINFPDDLPGSNTAAPVQETLHGCQPVTQEDGKESRISVQERQ
notes: source: E. coli DH5α or BL21 Codon Plus RIPL, purified (glutathione Sepharose 4B)
Kd [4]: 17.1 nM | binding result [5]: binds | binding result [6]: binds

B2: TRAF6 inhibitor peptide DRQIKIWFQNRRMKWKK-RKIPTEDEY (peptide)
peptide: DRQIKIWFQNRRMKWKKRKIPTEDEY
notes: also called RANK-derived peptide; source: bought: Novus Biologicals NBP2-26506
IC50 [7]: 546 nM | IC50 [8]: 177 nM

B3: LMP1 peptide G378PVQLSYYD (peptide)
peptide: GPVQLSYYD
notes: source: unlabeled peptide (PSL)
binding result [9]: binds

Source: PMC10776578, “Epstein-Barr virus-driven B cell lymphoma mediated by a direct LMP1-TRAF6 complex” (Nature Communications, 2024)
